Data on 1 substance can be found in PMC12671738.

Where “and” joins values, the source holds several entries; their conditions need not be identical. Equal values may be shown once.

Assay [1] has as its target p33 protein of citrus tristeza virus (CTV) (citrus tristeza virus). Put plainly: SDS-PAGE and western blot of SDS-resistant oligomers; crude extract: leaf discs of agroinfiltrated N. benthamiana macerated directly in SDS loading buffer with 8 M urea; blot with anti-p33 antibody; empty vector as control. (In general: Immunoblotting shows a protein as a band on a membrane.)

Assay [2] has the same target. Put plainly: SDS-PAGE and western blot of SDS-resistant oligomers; p33 immunoprecipitated from N. benthamiana leaf lysate with anti-p33 antibody on protein A magnetic beads, eluted in SDS loading buffer with 100 mM DTT and 8 M urea at 70 °C; blot with anti-p33 antibody.

Regarding “p33 protein of citrus tristeza virus (CTV) (natural protein)”, the stoichiometry N (in general, the number of molecules, sites or subunits per partner or assembly) in assay [1] was 2 and 4; in assay [2], 2 and 4.
